Assay results taken from patent EP4585616A1, “ANTIBODY CAPABLE OF SPECIFICALLY BINDING TO ROR1, […] THEREOF, AND PREPARATION METHOD THEREFOR AND USE THEREOF” (Hefei Institutes of Physical Science, Chinese Academy of …, priority 2022, dated 2024).

B1: mAb004 (antibody, IgG2b, V domains shown)
VH: EVQLVESGGGLVQPKGSLKLSCAASGFTFNTYAMHWVRQAPGKGLEWVARIRSKSSNFATYYADSVRDRFTISRDDSQSMLYLQMNNLKTEDTAMYYCVRGYGPSYFSLDYWGQGTSVTVSS
VL: DVVMTQTPLSLPVSLGDQASISCRSSQSLVHSNGNTYLHWYLQKPGQSPKLLIYKVSNRFSGVPDRFSGSGSGTDFTLKINRVEAEDLGVYFCSQSTHAIYTFGGGTKLEIK
notes: Mouse monoclonal antibody, IgG2b/k
B2: mAb003c (antibody, V domains shown)
VH: EVQLVESGGGLVKPGGSLKLSCAASGFTFSSYAMSWVRQTPEKRLEWVATISDGGSYTYYPDSVKGRFTISRDNAKNNLYLQMSHLKSEDTDMYYCVRGGYYYNLYAMDYWGQGTSVTVSS
VL: DIVLTQSPASLAVSLGQRAIISCKASQSVSFAGTSLMHWYQQKPGQQPKLLIYRASNLEAGVPTRFSGSGSRADFTLNIHPVEEDDAATYYCQQSGEYPWTFGGGTKLEIK
notes: Human-mouse chimeric
B3: mAb005 (antibody, IgG2b, V domains shown)
VH: EVQLVESGGGLVKPGGSLKLSCAASGFTFNSYAMSWVRQTPEKRLEWVATISDGGSYTYYPDNEKGRFTISRDNAKNNLYLQMSHLKSEDTAIYYCVRGGYYYNLYAMDYWGQGTSVTVSS
VL: DIVLTQSPASLAVSLGQRAIISCKASQSVSFPGTSLMHWYQQKPGQQPKLLIYRASNLEAGVPTRFSGSGSRTDFTLNIHPVEEDDTATYYCQQSREYPWTFGGGTQLEIK
notes: as for B1
B4: mAb003 (antibody, IgG2c, V domains shown)
VH: EVQLVESGGGLVKPGGSLKLSCAASGFTFSSYAMSWVRQTPEKRLEWVATISDGGSYTYYPDSVKGRFTISRDNAKNNLYLQMSHLKSEDTDMYYCVRGGYYYNLYAMDYWGQGTSVTVSS
VL: DIVLTQSPASLAVSLGQRAIISCKASQSVSFAGTSLMHWYQQKPGQQPKLLIYRASNLEAGVPTRFSGSGSRADFTLNIHPVEEDDAATYYCQQSGEYPWTFGGGTKLEIK
notes: Mouse monoclonal antibody, IgG2c/k
B5: UC-961 (antibody, V domains shown)
VH: QVQLQESGPGLVKPSQTLSLTCTVSGYAFTAYNIHWVRQAPGQGLEWMGSFDPYDGGSSYNQKFKDRLTISKDTSKNQVVLTMTNMDPVDTATYYCARGWYYFDYWGHGTLVTVSS
VL: DIVMTQTPLSLPVTPGEPASISCRASKSISKYLAWYQQKPGQAPRLLIYSGSTLQSGIPPRFSGSGYGTDFTLTINNIESEDAAYYFCQQHDESPYTFGEGTKVEIK
notes: Control antibody of US20150232569A1, made with human IgG1 heavy chain constant region and Kappa chain constant region
B6: mAb001c-vcMMAE (antibody, human IgG1, DAR about 3.81, V domains shown)
VH: EVRLQQSGPVLVKPGASVKMSCKASGYTFTDYNLHWVKQSHRQSLEWIGYINPNHDGTSYNQKFQGKATLTVDRSSSTAYMEFRSLTSEDSAVYYCARRVRTGTGLDDWGQGTTLTVSS
VL: DVLMTQSPLSLPVSLGDQASISCRSSHNIVHTNGNTYLEWYLQKPGQSPKLLIYKVSNRFSGVPDRFSGSGSGTYFTLTISRVEAEDLGVYYCFQGSRFPYTFGGGTKLEIK
modifications: vcMMAE on cysteines after TCEP reduction, positions not given
B7: mAb006c (antibody, V domains shown)
VH: EVQLQQSGPELVKPGASLKMSCKASGYTFPDYNIHWVKQSHGKSLEWIGYINPNNGGTTYNQKFKGKATLTVSKSSSTAYMELRSLTSEDSAVYSCARRGYGSSYAMDYWAQGTSVTVSS
VL: DVLMTQSPLSLPVSLGDQASISCRSSHIIVHTNGNTYLEWYLQKPGQSPKLLIYKVSNRFSGVPDRFSGSGSGTDFTLKISRVEAEDLGVYYCFQGSRVPYTFGGGTKLEIK
notes: Human-mouse chimeric
B8: mAb006 (antibody, IgG2b, V domains shown)
VH: EVQLQQSGPELVKPGASLKMSCKASGYTFPDYNIHWVKQSHGKSLEWIGYINPNNGGTTYNQKFKGKATLTVSKSSSTAYMELRSLTSEDSAVYSCARRGYGSSYAMDYWAQGTSVTVSS
VL: DVLMTQSPLSLPVSLGDQASISCRSSHIIVHTNGNTYLEWYLQKPGQSPKLLIYKVSNRFSGVPDRFSGSGSGTDFTLKISRVEAEDLGVYYCFQGSRVPYTFGGGTKLEIK
notes: as for B1
B9: mAb007 (antibody, IgG2b, V domains shown)
VH: EVQLQQSGPELVKPGASVKMSCKASGYTFTDYNMHWVKQSHGKSLEWIGYINPNNGGTSYNQKFKGKATLTVNKSSSTAYMELRSLTSDDSAVYYCARRGYGSGYAMDYWGQGTSVTVSS
VL: DVLMTQTPLSLPVSLGDQASISCRSSQSIVHTNGNTYLEWYLQNPGQSPKLLIYKVFNRFSGVPDRFSGSGSGTDFTLKISRVEAEDLGVYYCFQGSLFPYTFGGGTKLEIK
notes: as for B1
B10: mAb007c (antibody, V domains shown)
VH: EVQLQQSGPELVKPGASVKMSCKASGYTFTDYNMHWVKQSHGKSLEWIGYINPNNGGTSYNQKFKGKATLTVNKSSSTAYMELRSLTSDDSAVYYCARRGYGSGYAMDYWGQGTSVTVSS
VL: DVLMTQTPLSLPVSLGDQASISCRSSQSIVHTNGNTYLEWYLQNPGQSPKLLIYKVFNRFSGVPDRFSGSGSGTDFTLKISRVEAEDLGVYYCFQGSLFPYTFGGGTKLEIK
notes: Human-mouse chimeric
B11: mAb009 (antibody, IgG2b, V domains shown)
VH: EVQLQQSGPELVKPGASLKLSCKASGYTFPDYNIHWVKQSHGKSLEWIGYINPNNGNTNYNQKFEGKATLTVSKSSSTAYMELRSLTSDDSAVYSCARRGYGSSYAMDFWGQGTSVTVSS
VL: DVLMTQTPLSLPVSLGNQASISCRSSHIIVHTNGNTYLEWYLQKPGQSPKLLIYKVSNRFSGVPDRFSGSGSGTDFTLKISRVEAEDLGVYYCFQGSRVPYTFGGGTKLEIK
notes: as for B1
B12: mAb008 (antibody, IgG2b, V domains shown)
VH: EVQLQQSGPELVKPGASVKMSCKASEYTFTDYNMHWVKQSHGKSLEWIGYINPNNGGTTYNQKFKGKATLTVNKSSSTAYMELRSLTSDDSAVYYCARRGYGSGYAMDYWGQGASVTVSS
VL: DVLLTQTPLSLPVSLGDRASISCTSSQSIVHTNGNTYLEWYLQNPGQSPKLLIYKVSNRFSGVPDRFSGSGSGTDFTLKISRVEAEDLGVYYCFQGSLFPYTFGGGTKLEIK
notes: as for B1
B13: mAb008c (antibody, V domains shown)
VH: EVQLQQSGPELVKPGASVKMSCKASEYTFTDYNMHWVKQSHGKSLEWIGYINPNNGGTTYNQKFKGKATLTVNKSSSTAYMELRSLTSDDSAVYYCARRGYGSGYAMDYWGQGASVTVSS
VL: DVLLTQTPLSLPVSLGDRASISCTSSQSIVHTNGNTYLEWYLQNPGQSPKLLIYKVSNRFSGVPDRFSGSGSGTDFTLKISRVEAEDLGVYYCFQGSLFPYTFGGGTKLEIK
notes: Human-mouse chimeric
B14: mAb009c (antibody, V domains shown)
VH: EVQLQQSGPELVKPGASLKLSCKASGYTFPDYNIHWVKQSHGKSLEWIGYINPNNGNTNYNQKFEGKATLTVSKSSSTAYMELRSLTSDDSAVYSCARRGYGSSYAMDFWGQGTSVTVSS
VL: DVLMTQTPLSLPVSLGNQASISCRSSHIIVHTNGNTYLEWYLQKPGQSPKLLIYKVSNRFSGVPDRFSGSGSGTDFTLKISRVEAEDLGVYYCFQGSRVPYTFGGGTKLEIK
notes: Human-mouse chimeric

How the values were obtained:
[1] = biological target: T1, human ROR1 on the surface of tumor cells (human, UniProt Q01973 30-937); test: FACS, MDA-MB-231 cells
T1 construct: whole, on cells; also called ROR1 on the cell surface; tumor cell ROR1
T1 sequence (Q01973 30-937): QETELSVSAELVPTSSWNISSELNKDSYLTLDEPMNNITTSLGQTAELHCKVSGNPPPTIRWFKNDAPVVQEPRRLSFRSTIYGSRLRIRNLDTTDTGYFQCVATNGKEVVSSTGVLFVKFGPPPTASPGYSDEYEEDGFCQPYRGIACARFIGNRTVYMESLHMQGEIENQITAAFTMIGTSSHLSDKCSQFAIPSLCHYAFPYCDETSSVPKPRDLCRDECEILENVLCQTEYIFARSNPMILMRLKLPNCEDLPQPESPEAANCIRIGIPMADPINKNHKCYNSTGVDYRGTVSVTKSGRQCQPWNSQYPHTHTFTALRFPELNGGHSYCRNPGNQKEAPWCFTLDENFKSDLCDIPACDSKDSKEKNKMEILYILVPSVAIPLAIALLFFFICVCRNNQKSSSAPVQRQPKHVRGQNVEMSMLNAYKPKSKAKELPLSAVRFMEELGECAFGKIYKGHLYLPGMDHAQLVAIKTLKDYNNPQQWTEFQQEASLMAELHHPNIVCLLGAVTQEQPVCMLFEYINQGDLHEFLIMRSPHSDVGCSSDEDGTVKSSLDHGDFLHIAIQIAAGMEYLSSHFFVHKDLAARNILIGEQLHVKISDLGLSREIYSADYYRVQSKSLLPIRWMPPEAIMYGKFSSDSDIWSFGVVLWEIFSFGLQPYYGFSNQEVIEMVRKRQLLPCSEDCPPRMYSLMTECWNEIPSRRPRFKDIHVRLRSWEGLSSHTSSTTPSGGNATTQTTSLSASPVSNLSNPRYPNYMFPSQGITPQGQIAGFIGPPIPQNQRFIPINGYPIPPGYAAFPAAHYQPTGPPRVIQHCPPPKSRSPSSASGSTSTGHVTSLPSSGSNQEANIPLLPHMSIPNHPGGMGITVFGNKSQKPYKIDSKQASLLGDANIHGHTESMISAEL

[2] = biological target: T2, Extracellular domain of human ROR1 protein (ROR1-ECD) (human, UniProt Q01973 30-403); test: ELISA, purified ROR1-ECD
T2 construct: Expressed in HEK293T cells; also called human ROR1-ECD; purified human ROR1 protein extracellular segment
T2 sequence (Q01973 other isoform, or with tags, fused parts or gaps): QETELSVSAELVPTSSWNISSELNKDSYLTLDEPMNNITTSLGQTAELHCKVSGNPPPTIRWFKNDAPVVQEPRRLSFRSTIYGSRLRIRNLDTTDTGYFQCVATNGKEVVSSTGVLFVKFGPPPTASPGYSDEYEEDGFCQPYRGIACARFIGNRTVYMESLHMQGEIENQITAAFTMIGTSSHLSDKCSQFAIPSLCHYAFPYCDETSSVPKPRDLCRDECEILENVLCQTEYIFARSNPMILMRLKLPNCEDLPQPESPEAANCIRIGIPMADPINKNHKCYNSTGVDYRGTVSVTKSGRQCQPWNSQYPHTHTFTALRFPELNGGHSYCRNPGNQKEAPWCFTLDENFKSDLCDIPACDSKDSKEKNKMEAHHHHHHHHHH

[3] = biological target: T1, human ROR1 on the surface of tumor cells; test: FACS, NCI-H226 cells
[4] = biological target: T2, Extracellular domain of human ROR1 …; test: ELISA, plate-coated ROR1-ECD
[5] = biological target: T3, ROR1 extracellular segment sequence (including transmembrane) on CHO cells (human, UniProt Q01973 30-472); test: FACS, CHO-ROR1 (extracellular segment) cells
T3 construct: Cloned into pCDNA3.1 and transfected into CHO cells; also called CHO-ROR1 (extracellular segment); CHO-ROR1
T3 sequence (Q01973 30-472 limits assumed): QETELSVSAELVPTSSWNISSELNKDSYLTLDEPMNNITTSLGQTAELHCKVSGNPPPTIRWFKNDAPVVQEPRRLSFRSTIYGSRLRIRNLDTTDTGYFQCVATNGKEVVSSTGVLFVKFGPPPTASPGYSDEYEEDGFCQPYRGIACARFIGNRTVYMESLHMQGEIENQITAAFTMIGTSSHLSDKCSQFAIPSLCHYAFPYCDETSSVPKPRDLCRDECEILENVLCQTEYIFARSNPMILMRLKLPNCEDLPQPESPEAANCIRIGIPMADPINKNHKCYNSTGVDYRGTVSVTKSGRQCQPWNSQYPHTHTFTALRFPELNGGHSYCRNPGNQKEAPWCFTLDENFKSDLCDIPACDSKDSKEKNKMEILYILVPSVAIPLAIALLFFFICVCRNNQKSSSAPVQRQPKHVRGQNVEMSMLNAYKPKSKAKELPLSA

[6] = biological target: T4, ROR1 extracellular segment with Kringle domain removed on CHO cells (human, UniProt Q01973 30-472, limits assumed); test: FACS, CHO-ROR1 (with Kringle domain removed) cells
T4 construct: Transfected into CHO cells; also called CHO-ROR1 (with Kringle domain removed)
T4 sequence (Q01973 other isoform, or with tags, fused parts or gaps limits assumed): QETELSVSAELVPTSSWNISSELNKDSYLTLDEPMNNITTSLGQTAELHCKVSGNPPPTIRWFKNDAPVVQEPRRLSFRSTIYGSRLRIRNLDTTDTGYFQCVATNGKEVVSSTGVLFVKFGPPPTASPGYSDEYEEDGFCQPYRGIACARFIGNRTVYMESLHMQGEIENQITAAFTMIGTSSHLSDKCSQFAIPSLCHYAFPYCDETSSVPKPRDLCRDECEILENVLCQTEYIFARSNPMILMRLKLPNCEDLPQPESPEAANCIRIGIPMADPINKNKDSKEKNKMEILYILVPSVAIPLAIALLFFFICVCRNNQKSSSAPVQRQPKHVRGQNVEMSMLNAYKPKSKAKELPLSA

[7] = biological target: T5, ROR1 extracellular segment with Frizzled domain removed on CHO cells (human, UniProt Q01973 30-472, limits assumed); test: FACS, CHO-ROR1 (with Frizzled domain removed) cells
T5 construct: Transfected into CHO cells; also called CHO-ROR1 (with Frizzled domain removed)
T5 sequence (Q01973 other isoform, or with tags, fused parts or gaps limits assumed): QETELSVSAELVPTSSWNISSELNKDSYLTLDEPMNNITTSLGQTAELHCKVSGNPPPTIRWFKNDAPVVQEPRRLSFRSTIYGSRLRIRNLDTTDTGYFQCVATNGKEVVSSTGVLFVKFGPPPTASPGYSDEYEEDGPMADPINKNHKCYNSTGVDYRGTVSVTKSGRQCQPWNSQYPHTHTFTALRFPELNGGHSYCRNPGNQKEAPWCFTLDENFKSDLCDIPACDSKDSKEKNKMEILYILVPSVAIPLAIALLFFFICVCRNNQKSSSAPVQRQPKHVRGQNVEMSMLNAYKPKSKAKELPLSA

[8] = biological target: T3, ROR1 extracellular segment sequence …; test: FACS, ROR1 transferred onto CHO cell surface (summing up of Example 9)
[9] = biological target: T1, human ROR1 on the surface of tumor cells; test: FACS, NCI-H226 cells; remark: listed apart in the source
[10] = biological target: T1, human ROR1 on the surface of tumor cells; test: FACS, MDA-MB-231 cells; remark: listed apart in the source
[11] = biological target: T2, Extracellular domain of human ROR1 …; test: ELISA, plate-coated ROR1-ECD; remark: listed apart in the source
[12] = biological target: T3, ROR1 extracellular segment sequence …; test: FACS, CHO-ROR1 (extracellular segment) cells; remark: listed apart in the source
[13] = biological target: T1, human ROR1 on the surface of tumor cells; test: cell-based or functional assay
[14] = biological target: T6, ROR1 extracellular segment with Ig-like domain removed on CHO cells (human, UniProt Q01973 30-472, limits assumed); test: FACS, CHO-ROR1 (with Ig-like domain removed) cells
T6 construct: Transfected into CHO cells; also called CHO-ROR1 (with Ig-like domain removed)
T6 sequence (Q01973 other isoform, or with tags, fused parts or gaps limits assumed): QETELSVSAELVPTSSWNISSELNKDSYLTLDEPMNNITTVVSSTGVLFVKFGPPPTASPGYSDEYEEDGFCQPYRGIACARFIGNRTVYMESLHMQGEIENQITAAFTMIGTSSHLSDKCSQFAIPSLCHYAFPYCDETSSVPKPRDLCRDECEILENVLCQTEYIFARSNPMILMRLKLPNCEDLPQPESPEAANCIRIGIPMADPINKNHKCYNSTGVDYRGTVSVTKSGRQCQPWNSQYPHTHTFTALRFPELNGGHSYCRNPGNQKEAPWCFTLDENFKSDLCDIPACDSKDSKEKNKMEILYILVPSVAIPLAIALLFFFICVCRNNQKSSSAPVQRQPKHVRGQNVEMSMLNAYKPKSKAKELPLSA

Row | Binder | EC50 [1] [nM] | EC50 [2] [nM] | EC50 [3] [nM] | EC50 [4] [nM] | EC50 [5] [nM] | EC50 [6] [nM] | EC50 [7] [nM] | EC50 [8] [nM] | further results
1 | B1 | 0.15 | 0.038 |  |  |  |  |  |  | 
2 | B2 | 1.1 |  | 0.76 | 0.013 | 1.47 | 1.74 | 1.78 | < 2 | 
3 | B3 | 0.16 | 0.043 |  |  |  |  |  |  | 
4 | B4 | 0.45 | 0.023 |  |  |  |  |  |  | 
5 | B5 |  |  |  |  |  | 0.79 | 1.11 |  | EC50 [9]: 0.13 nM; EC50 [10]: 0.21 nM; EC50 [11]: 0.013 nM; EC50 [12]: 0.74 nM
6 | B6 |  |  |  |  |  |  |  |  | in vitro anti-proliferative activity IC50, HCC827 cells (CCK8) [13]: < 10 nM; in vitro anti-proliferative activity IC50, HCC1187 cells (CCK8) [13]: < 10 nM; in vitro anti-proliferative activity IC50, HT-29 cells (CCK8) [13]: < 10 nM; in vitro anti-proliferative activity IC50, MCF-7 cells (CCK8) [13]: > 100 nM; in vitro anti-proliferative activity IC50, MDA-MB-231 cells (CCK8) [13]: < 10 nM; in vitro anti-proliferative activity IC50, NCI-H446 cells (CCK8) [13]: < 10 nM; in vitro anti-proliferative activity IC50, NCI-N87 cells (CCK8) [13]: < 10 nM
7 | B7 | 0.4 |  | 0.28 | 0.009 | 0.71 | 1.59 | 1.64 | < 2 | EC50 [14]: 0.37 nM
8 | B8 | 0.19 | 0.059 |  |  |  |  |  |  | 
9 | B9 | 0.15 | 0.066 |  |  |  |  |  |  | 
10 | B10 | 0.25 |  | 0.28 | 0.012 | 0.54 | 1.03 | 1.25 | < 2 | EC50 [14]: 0.36 nM
11 | B11 | 0.16 | 0.062 |  |  |  |  |  |  | 
12 | B12 | 0.11 | 0.053 |  |  |  |  |  |  | 
13 | B13 | 0.78 |  | 0.36 | 0.02 | 0.7 | 1.5 | 1.67 | < 2 | EC50 [14]: 0.37 nM
14 | B14 | 0.33 |  | 0.25 | 0.017 | 0.79 | 1.62 | 1.68 | < 2 | EC50 [14]: 0.45 nM
